In paper PMC7041718 (The Journal of Experimental Medicine, 2019):

Target: 16055 gp120 (HIV-1 clade C clinical isolate 16055)
Test: ELISA

binding result: binds
B1: GM7_TH2 mAb (antibody, V domains shown)
VH: QVQLVQSGTEVKQPGASVKVSCKASGYTFTGYGMNWVRQAHGQRLEWMGWINTETGHPTYAQGFKERFTFSMDTSISTAYLQINSLKPEDTAIYYCARFSGLHSVAVFEYWGQGVLVTVSS
VL: SSGLTQEPALSVALGHTVRMTCQGDSLKTYYATWYQQKPGQVPVLVIYDNNYRPSGIPGRFSVSWSGDTNSLTITAAQVEDEADYYCNSWDSSGTHLLFGGGTRLTVL
